Data reported in patent US20230052369A1 (Zymeworks, published 2023).
Where a chain is given by its changes, count along the chain named.

B1: v20022 (antibody, human IgG1, kappa, L234A L235A, V domains shown)
VH: QVQLKESGPGLVAPSQSLSITCTVSGFSLTTYAISWVRQPPGKGLEWLGIIWPGGGTNYNSALKSRLSISKDNSRSQVFLKMNSLQTDDTARYYCARGAGTWYFDVWGAGTTVTVSS
VL: DIQMTQSTSSLSASVGDRVTISCSASQGISNYLNWYQQKPDGTVKLLIYYTSSLHSGVPSRFSGSGSGTDYSLTISNLEPEDIATYYCQQYSKFPWTFGGGTKLEIKR
notes: Mouse-human chimera; also called 1C8; 1C8 mouse-human parental chimera
B2: v20023 (antibody, human IgG1, kappa, L234A L235A, V domains shown)
VH: EVQLVESGGGLVKPGGSRKLSCAASGFTFSEFGMHWVRQAPDKGLKWVAYISSGGSTIYYADTVKGRFTISRDNAKNTLFLQMTSLRSEDTAMYYCARDWVDYWGQGTTLTVSS
VL: NIVMTQSPKSMSMSVGERVTLSCKASENVGSYVSWYQQKPEKSPKLLIYGASNRYTGVPDRFTGSGSATDFTLTISSVQAEDLADYHCGQSYSYPLTFGAGTKLELKR
notes: Mouse-human chimera; also called 1G1; 1G1 mouse-human parental chimera
B3: v20029 (antibody, human IgG1, kappa, L234A L235A, V domains shown)
VH: B2 VH with E1Q, V5Q, K46E, G55S, T109A
VL: B2 VL
notes: Mouse-human chimera; also called 3E7
B4: v20036 (antibody, human IgG1, kappa, L234A L235A, V domains shown)
VH: QVQLQESGPGLVQPTQSLSITCTVSGFSLISYGVHWVRQSPGKGLEWLGVIWSGGSTDYNAAFISRLSISKDNSKSQVFFKMNSLQADDTAIYYCARNPLTATVMDYWGQGTSVTVSS
VL: DIVMTQSQKFMSTSVGDRVSVTCKASQNVGTNVAWYQQKPGQSPKALIYSASYRDSGVPDRFTGSGSGTDFTLTISNVQSEDLAEYLCQQYNSYPLTFGAGTKLELKR
notes: Mouse-human chimera; also called 5G8; 5G8 mouse-human parental chimera
B5: v20020 (antibody, V domains shown)
VH: QVQLQQPGAELVKPGASVKLSCKASGYTFTSFWINWVKQRPGQGLEWIGNIYPDSSSTNYNEKFKNKATLTVDTSSSTAYMQLSSLTSDDSAVYFCARSLTFDYWGQGTTLTVSS
VL: DVVMTQTPLSLPVSLGDQASISCRSSQSIVHSNGNTYLEWYLQKPGQSPKLLIYKVSNRFSGVPDRFSARGSGTDFSLKISRVEAEDLGVYYCFQGSHVPYTFGGGTKLEIK
notes: Mouse-human chimera: mouse VH on human CH1-hinge-CH2-CH3 (IgG1), mouse VL on human kappa CL; also called 1B2
B6: v20031 (antibody, human IgG1, kappa, L234A L235A, V domains shown)
VH: QVQLQQSGPELVKPGASVKISCKASGYVFSSYWMNWVKQRPGKGLEWIGRIYPGNGDTNYNGKFKDKATLTADKFSSTAYMQLSNLTSEDSAVYFCASYYELDYWGQGTSVTVSS
VL: DVVMTQTPLSLPVSLGDQASISCRSSQSLVHSNGNTYLHWYLQKPGQSPKLLIYKVSNRFFGVPDRFSGSGSGTDFTLKISRVEAEDLGVYFCSQTTYVPLTFGAGTKLELKR
notes: Mouse-human chimera; also called 4B11; printed as 4B1
B7: v12592 (antibody, human IgG1, lambda)
heavy 1: EVQLVQSGAEVKKPGESLRISCKGSGYSFSTYWISWVRQMPGKGLEWMGKIYPGDSYTNYSPSFQGQVTISADKSISTAYLQWSSLKASDTAMYYCARGYGIFDYWGQGTLVTVSSASTKGPSVFPLAPCSRSTSESTAALGCLVKDYFPEPVTVSWNSGALTSGVHTFPAVLQSSGLYSLSSVVTVPSSNFGTQTYTCNVDHKPSNTKVDKTVEPKSCDKTHTCPPCPAPELLGGPSVFLFPPKPKDTLMISRTPEVTCVVVDVSHEDPEVKFNWYVDGVEVHNAKTKPREEQYNSTYRVVSVLTVLHQDWLNGKEYKCKVSNKALPAPIEKTISKAKGQPREPQVYVYPPSRDELTKNQVSLTCLVKGFYPSDIAVEWESNGQPENNYKTTPPVLDSDGSFALVSKLTVDKSRWQQGNVFSCSVMHEALHNHYTQKSLSLSPGK
heavy 2: not shown
light: SYELTQPPSVSVSPGQTASITCSGDNIGDQYAHWYQQKPGQSPVLVIYQDKNRPSGIPERFSGSNSGNTATLTISGTQAMDEADYYCATYTGFGSLAVFGGGTKLTVLGQPKAAPSVTLFPPSSEELQANKATLYCLISDFYPGAVTVAWKADSSPVKAGVETTTPSKQSNNKYAASSYLSITPEQWKSHRSYSCQVTHEGSTVEKTVAPTECS
notes: Control monospecific bivalent anti-4-1BB antibody, Het Fc; clones 2871, 4667, 2872; also called MOR7480.1-IG1; MOR7480.1
B8: v28695 (antibody, human IgG1, kappa, L234A L235A, V domains shown)
VH: QVQLQESGPGLVKPSETLSLTCTVSGFSLISYGVHWIRQPPGKGLEWIGVIWSGGSTDYNPSLKSRVTISVDTSKNQFSLKLSSVTAADTAVYYCARNPLTATVMDYWGQGTLVTVSS
VL: DIQMTQSPSSLSASVGDRVTITCRASQNVGTNVAWFQQKPGKAPKSLIYSASYRDSGVPSRFSGSGSGTDFTLTISSLQPEDFATYYCQQYNSYPLTFGGGTKVEIKR
notes: also called humanized 5G8 H1L1
B9: v20027 (antibody, human IgG1, kappa, L234A L235A, V domains shown)
VH: QVQLQQPGAELVRPGASVKLSCKASGYTFTSYWINWVKQRPGQGLEWIGNIYPSDNYTNYNQKFKDKATLTVDKSSSTAYMQLSSPTSEDSAVYYCTRGGGIYYENYFDYWGQGTTLTVSS
VL: QIVLTQSPAIMSASPGEKVTMTCSASSSVSYMHWYQQKSGTSPKRWVYDTSKLASGVPARFSGSGSGTSYSLTISSMEAEDVATYYCQQWSSNPPTFGGGTKLEIKR
notes: Mouse-human chimera; also called 3D7
B10: v16601 (bispecific antibody)
VH: EVQLVQSGAEVKKPGESLRISCKGSGYSFSTYWISWVRQMPGKGLEWMGKIYPGDSYTNYSPSFQGQVTISADKSISTAYLQWSSLKASDTAMYYCARGYGIFDYWGQGTLVTVSS
VL: SYELTQPPSVSVSPGQTASITCSGDNIGDQYAHWYQQKPGQSPVLVIYQDKNRPSGIPERFSGSNSGNTATLTISGTQAMDEADYYCATYTGFGSLAVFGGGTKLTVL
scFv: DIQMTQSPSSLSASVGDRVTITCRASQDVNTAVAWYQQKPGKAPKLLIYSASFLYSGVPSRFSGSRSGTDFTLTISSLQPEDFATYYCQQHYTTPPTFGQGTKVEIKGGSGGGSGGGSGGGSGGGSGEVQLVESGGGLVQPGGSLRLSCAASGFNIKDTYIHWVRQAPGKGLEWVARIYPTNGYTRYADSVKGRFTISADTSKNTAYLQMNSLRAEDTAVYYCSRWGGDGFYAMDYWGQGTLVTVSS
B11: v16605 (bispecific antibody)
VH: B10 VH
VL: B10 VL
scFv: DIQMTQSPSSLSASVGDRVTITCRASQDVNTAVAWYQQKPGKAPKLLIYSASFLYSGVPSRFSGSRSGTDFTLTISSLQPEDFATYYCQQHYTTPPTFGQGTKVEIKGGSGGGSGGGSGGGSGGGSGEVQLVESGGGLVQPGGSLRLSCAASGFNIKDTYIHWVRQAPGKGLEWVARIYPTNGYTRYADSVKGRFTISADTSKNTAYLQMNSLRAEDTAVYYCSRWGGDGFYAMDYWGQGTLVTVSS
B12: v16675 (bispecific antibody, human IgG1, lambda, L234A L235A)
heavy 1: not shown
heavy 2: EVQLVQSGAEVKKPGESLRISCKGSGYSFSTYWISWVRQMPGKGLEWMGKIYPGDSYTNYSPSFQGQVTISADKSISTAYLQWSSLKASDTAMYYCARGYGIFDYWGQGTLVTVSSASTKGPSVFPLAPSSKSTSGGTAALGCLVKDYFPEPVTVSWNSGALTSGVHTFPAVLQSSGLYSLSSVVTVPSSSLGTQTYICNVNHKPSNTKVDKKVEPKSCDKTHTCPPCPAPELLGGPSVFLFPPKPKDTLMISRTPEVTCVVVDVSHEDPEVKFNWYVDGVEVHNAKTKPREEQYNSTYRVVSVLTVLHQDWLNGKEYKCKVSNKALPAPIEKTISKAKGQPREPQVYVYPPSRDELTKNQVSLTCLVKGFYPSDIAVEWESNGQPENNYKTTPPVLDSDGSFALVSKLTVDKSRWQQGNVFSCSVMHEALHNHYTQKSLSLSPG
light: B7 light with Y135V, I182L
B13: v16679 (bispecific antibody, human IgG1, lambda, L234A L235A)
heavy 1: not shown
heavy 2: B12 heavy 2
light: B7 light with Y135V, I182L

These binders were tested against T1, Mouse 4-1BB-Flag, on HEK293-6e cells (Mouse (Mus musculus), UniProt P20334 24-208) (assay: CellInsight cell binding, transfected HEK293-6e).
T1 construct: also called CL#11063
T1 sequence (P20334 other isoform, or with tags, fused parts or gaps limits assumed): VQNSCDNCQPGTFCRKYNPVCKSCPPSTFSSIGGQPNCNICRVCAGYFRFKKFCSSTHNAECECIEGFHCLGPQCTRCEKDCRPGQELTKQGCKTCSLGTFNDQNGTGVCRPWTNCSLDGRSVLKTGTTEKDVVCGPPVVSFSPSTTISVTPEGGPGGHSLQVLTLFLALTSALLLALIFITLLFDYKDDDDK

Binder | binding result
B1 | no binding
B2 | no binding
B3 | no binding
B4 | no binding
B5 | no binding
B6 | no binding

Target: T2, Cyno 4-1BB-Flag, on HEK293-6e cells (Cynomolgus (Macaca fascicularis))
T2 construct: also called Cynomolgus 4-1BB; CL#11070
T2 chain: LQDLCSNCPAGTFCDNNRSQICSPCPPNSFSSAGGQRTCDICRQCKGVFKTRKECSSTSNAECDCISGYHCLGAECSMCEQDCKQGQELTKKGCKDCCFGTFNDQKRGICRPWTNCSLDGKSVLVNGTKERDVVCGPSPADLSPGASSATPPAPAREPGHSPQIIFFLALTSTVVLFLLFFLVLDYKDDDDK
Assay: CellInsight cell binding, transfected HEK293-6e

Binder | binding result
B1 | binds
B2 | binds
B3 | binds
B7 | binds
B5 | no binding
B6 | no binding

What follows are binders tested against T3, purified human monomeric 4-1BB (human, UniProt Q07011 24-186) (assay: SPR, Ab captured, monomeric 4-1BB injected).
T3 construct: the assay used the 4-1BB part released by Factor Xa with the Fc removed; also called h4-1BB; human 4-1BB
T3 sequence (Q07011 other isoform, or with tags, fused parts or gaps limits assumed): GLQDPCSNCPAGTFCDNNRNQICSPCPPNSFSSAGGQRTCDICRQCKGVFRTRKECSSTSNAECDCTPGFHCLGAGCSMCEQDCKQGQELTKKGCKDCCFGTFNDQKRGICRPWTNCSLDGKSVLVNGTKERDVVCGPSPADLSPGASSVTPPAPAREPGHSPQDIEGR

Binder | binding result
B8 | no binding

What follows are binders tested against T3, purified human monomeric 4-1BB (assay: SPR, mean n=3;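 further: antibodies captured on anti-human Fc chip, 4-1BB injected as five-point two-fold series from 40 nM by single-cycle kinetics at 25 °C, sensorgrams fitted to 1:1 Langmuir model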).

Binder | Kd
B1 | 582 nM
B2 | 49.6 nM
B4 | 266 nM

What follows are binders tested against T4, human 4-1BB, full-length, expressed on cells (human, UniProt Q07011 24-255) (assay: flow cytometry, Jurkat-4-1BB).
T4 construct: also called CD137; TNFRSF9
T4 sequence (Q07011 24-255): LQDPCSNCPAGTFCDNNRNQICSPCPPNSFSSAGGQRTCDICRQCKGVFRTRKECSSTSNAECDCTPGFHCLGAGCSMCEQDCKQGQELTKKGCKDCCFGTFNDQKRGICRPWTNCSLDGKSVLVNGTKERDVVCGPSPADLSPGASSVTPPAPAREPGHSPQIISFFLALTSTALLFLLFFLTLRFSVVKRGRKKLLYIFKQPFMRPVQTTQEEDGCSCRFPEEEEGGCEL

Binder | EC50
B1 | 17.3 nM
B2 | 0.337 nM
B4 | 16.9 nM

What follows are binders tested against T5, 4-1BB dog-human (human-dog chimeric 4-1BB ECD-TEV-IgG1 Fc-10x His) (human with dog residues in domain 4) (assay: ELISA, coated 4-1BB-Fc).
T5 construct: Human 4-1BB ECD with K115Q, C121R, R134Q, R154S and V156A (already in the entry); also called dog-human chimeric 4-1BB; hybrid 4-1BB
T5 sequence (chain, as listed by the source mutant limits assumed): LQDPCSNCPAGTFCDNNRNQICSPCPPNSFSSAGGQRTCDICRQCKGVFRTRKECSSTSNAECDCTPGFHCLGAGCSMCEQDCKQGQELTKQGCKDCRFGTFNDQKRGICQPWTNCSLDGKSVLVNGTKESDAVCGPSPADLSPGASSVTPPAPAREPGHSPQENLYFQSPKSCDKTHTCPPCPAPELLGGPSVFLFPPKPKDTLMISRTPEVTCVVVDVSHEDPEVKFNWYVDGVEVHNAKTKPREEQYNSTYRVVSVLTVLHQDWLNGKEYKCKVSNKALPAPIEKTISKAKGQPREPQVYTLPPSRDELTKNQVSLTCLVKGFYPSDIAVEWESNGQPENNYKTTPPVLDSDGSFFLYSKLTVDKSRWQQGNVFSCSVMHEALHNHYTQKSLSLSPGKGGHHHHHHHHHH

Binder | binding result
B1 | binds
B4 | binds

What follows are binders tested against T6, 4-1BB human (human 4-1BB ECD-TEV-IgG1 hinge-CH2-CH3-10x His) (human) (assay: ELISA, coated 4-1BB-Fc).
T6 construct: 4-1BB residues 24-186 fused to TEV site, IgG1 Fc and His tag; the entry is the whole fusion; also called soluble human 4-1BB-Fc
T6 sequence (chain, as listed by the source limits assumed): as the sequence (chain, as listed by the source mutant limits assumed) above, with Q92K, R98C, Q111R, S131R, A133V counted along it

Binder | binding result
B1 | binds
B2 | binds
B3 | binds
B4 | binds
B9 | no binding

Each binder was assayed against T7, 4-1BB dog (dog 4-1BB ECD-TEV-IgG1 Fc-10x His) (dog) (assay: ELISA, coated 4-1BB-Fc).
T7 construct: Uniprot E2R1R9 residues 24-186 fused to TEV site, IgG1 Fc and His tag
T7 sequence (chain, as listed by the source limits assumed): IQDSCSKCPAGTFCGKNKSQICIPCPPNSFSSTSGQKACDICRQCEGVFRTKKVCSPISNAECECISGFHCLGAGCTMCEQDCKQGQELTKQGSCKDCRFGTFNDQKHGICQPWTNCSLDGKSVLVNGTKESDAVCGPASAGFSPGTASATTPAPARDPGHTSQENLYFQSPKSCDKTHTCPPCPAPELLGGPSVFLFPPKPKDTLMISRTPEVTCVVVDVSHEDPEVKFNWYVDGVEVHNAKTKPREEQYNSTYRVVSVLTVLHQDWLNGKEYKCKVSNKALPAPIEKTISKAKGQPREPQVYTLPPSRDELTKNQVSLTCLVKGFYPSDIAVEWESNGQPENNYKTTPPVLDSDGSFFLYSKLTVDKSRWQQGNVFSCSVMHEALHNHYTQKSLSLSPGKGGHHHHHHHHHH

Binder | binding result
B1 | no binding
B2 | binds
B3 | binds
B4 | no binding

What follows are binders tested against T4, human 4-1BB, full-length, expressed on … (assay: cell-based or functional assay).

Binder | EC50 (pM), 4-1BB NF-kB-luciferase Jurkat reporter in co-culture with SKOV3 | Max activity (RLU), 4-1BB NF-kB-luciferase Jurkat reporter
B10 | 2620 pM | 27900 RLU
B11 | 401 pM | 92000 RLU
B12 | 56.9 pM | 80900 RLU
B13 | 30.1 pM | 131000 RLU

What follows are binders tested against T8, truncated human 4-1BB domain 3 and 4 only construct (residues 86-255), on cells (human, UniProt Q07011 86-255) (assay: flow cytometry, transfected 293E6 cells).
T8 construct: on 293E6 cells co-transfected with mouse 4-1BB; also called 4-1BB domain 3 and 4 only construct (amino acids 86-255)
T8 sequence (Q07011 86-255): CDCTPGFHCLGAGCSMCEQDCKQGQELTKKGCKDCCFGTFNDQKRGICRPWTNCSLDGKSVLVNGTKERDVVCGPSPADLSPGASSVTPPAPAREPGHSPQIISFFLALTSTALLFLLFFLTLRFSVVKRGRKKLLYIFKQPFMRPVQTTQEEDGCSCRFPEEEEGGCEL

Binder | binding result
B1 | no binding (tested: 2.5 µg of antibody)
B2 | no binding (tested: 2.5 µg of antibody)
B3 | no binding (tested: 2.5 µg of antibody)
B4 | no binding (tested: 2.5 µg of antibody)

The binders below were run against T4, human 4-1BB, full-length, expressed on … (assay: flow cytometry, transfected 293E6 cells).

Binder | binding result
B3 | binds
